Data reported in US20170183404A1.

Target: Purified Mor1 (Example 9) (Mus musculus (Mouse)) (UniProt P42866)
Test: cell-based or functional assay

Chain of Heterotrimeric Gi (P63096 2-354): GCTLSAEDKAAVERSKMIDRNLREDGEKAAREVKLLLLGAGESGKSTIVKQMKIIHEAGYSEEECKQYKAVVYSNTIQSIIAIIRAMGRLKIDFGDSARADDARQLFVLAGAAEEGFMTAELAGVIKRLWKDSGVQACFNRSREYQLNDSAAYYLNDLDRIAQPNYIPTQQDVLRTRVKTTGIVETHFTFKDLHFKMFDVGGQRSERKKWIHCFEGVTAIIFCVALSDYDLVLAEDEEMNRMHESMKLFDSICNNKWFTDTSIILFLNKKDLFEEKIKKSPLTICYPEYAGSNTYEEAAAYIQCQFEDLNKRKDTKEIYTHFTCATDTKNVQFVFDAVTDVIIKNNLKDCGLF
Chain of Heterotrimeric Gi (P62873 2-340): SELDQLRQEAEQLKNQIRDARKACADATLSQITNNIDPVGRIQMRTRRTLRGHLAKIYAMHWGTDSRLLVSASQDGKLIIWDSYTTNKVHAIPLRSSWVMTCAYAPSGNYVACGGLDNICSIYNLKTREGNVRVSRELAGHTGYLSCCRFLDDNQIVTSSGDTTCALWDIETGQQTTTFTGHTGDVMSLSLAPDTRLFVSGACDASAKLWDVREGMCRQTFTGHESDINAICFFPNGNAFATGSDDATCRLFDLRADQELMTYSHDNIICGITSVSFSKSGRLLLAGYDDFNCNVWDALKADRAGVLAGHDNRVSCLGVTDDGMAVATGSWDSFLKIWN

enhancement of agonist (BU72) affinity for Mor1 in HDL particles: 220 fold
Substance: Heterotrimeric Gi (from UniProt P63096 2-354; P62873 2-340)
